According to patent EP4471048A1, “PEPTIDE INHIBITORS OF INTERLEUKIN-23 RECEPTOR” (Zealand Pharma A/S, priority 2023, dated 2024):
Each block holds one binder with its values, some of them ahead of it. *1 amine or outer side, *2 acyl side, *3 side chain or, on linkers, in order; H or OH if unused. Bridges are numbered along the chain shown (N, C = ends). Where no end group is shown, it is not given here. [ ]: non-standard residue; d: D form. 4‑Aminomethyl‑phenylacetyl = 4-aminomethyl-phenylacetyl unit, its amine closes the lactam, O=C(Cc1ccc(CN[*:1])cc1)[*:2]; (N3)‑K = lysine with the alpha-amine converted to an azide, [N-]=[N+]=N[C@@H](CCCCN[*:3])C(=O)[*:2]; Trp(1-Me) = Cn1cc(C[C@H](N)C(=O)O)c2ccccc21; 2Nal = N[C@@H](Cc1ccc2ccccc2c1)C(=O)O; AEF = NCCOc1ccc(C[C@H](N)C(=O)O)cc1; 3Pal = N[C@@H](Cc1cccnc1)C(=O)O; αMeL = CC(C)C[C@](C)(N)C(=O)O; CH2COCH2 = O=C(C[*:1])C[*:2]; NMeK = CN[C@@H](CCCCN)C(=O)O; dOrn = NCCC[C@@H](N)C(=O)O; NMeS = CN[C@@H](CO)C(=O)O; dDab = NCC[C@@H](N)C(=O)O; Orn = NCCC[C@H](N)C(=O)O; Pra = C#CC[C@H](N)C(=O)O; Dab = NCC[C@H](N)C(=O)O; βAla = NCCC(=O)O

Molecular target: T1, Nluc-IL23R fusion protein (human, UniProt Q5VWK5 22-629)
T1 construct: range 22-629; Stably expressed in HEK293 cells; also called hIL-23R; human IL-23R; not shown: Nanoluc protein (N1371, Promega) at the N-terminus, after a secretion signal
T1 sequence (looked up): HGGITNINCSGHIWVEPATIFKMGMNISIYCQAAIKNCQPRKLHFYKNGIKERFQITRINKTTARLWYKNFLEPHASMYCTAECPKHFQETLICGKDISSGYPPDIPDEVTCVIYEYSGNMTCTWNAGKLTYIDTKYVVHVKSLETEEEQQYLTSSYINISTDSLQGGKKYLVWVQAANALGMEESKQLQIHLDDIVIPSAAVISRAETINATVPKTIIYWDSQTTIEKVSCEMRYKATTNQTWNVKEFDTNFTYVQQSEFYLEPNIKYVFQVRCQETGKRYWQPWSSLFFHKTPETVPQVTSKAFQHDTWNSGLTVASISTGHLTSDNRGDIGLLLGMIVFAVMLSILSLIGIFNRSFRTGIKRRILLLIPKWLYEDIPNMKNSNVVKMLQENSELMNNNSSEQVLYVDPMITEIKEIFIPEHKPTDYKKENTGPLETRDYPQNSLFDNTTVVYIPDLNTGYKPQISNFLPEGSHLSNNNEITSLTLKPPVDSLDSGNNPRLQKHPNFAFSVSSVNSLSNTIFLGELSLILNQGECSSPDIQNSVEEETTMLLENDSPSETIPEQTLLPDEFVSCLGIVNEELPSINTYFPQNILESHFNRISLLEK
Assay: BRET competition vs TAMRA-labelled peptide, Nluc-IL23R membranes
Note: test concentration or dose not given here.

% displacement: 100%
B1: Compound 43 (peptide)
peptide: KWQE[AEF][2Nal][αMeL]E[Dab][3Pal]-NHMe
modifications: lactam 1-8, N-4
SMILES: CNC(=O)[C@H](Cc1cccnc1)NC(=O)[C@H](CCN)NC(=O)[C@@H]1CCC(=O)NCCCC[C@@H]2NC(=O)CC[C@H](NC(=O)[C@H](CCC(N)=O)NC(=O)[C@H](Cc3c[nH]c4ccccc34)NC2=O)C(=O)N[C@@H](Cc2ccc(OCCN)cc2)C(=O)N[C@@H](Cc2ccc3ccccc3c2)C(=O)N[C@@](C)(CC(C)C)C(=O)N1

% displacement: 102%
B2: Ref 141 (peptide)
peptide: [4‑Aminomethyl‑phenylacetyl][NMeS]CWQC[AEF][2Nal][αMeL]E[Dab]-NH2
modifications: lactam N-10; linker 3-6 via CH2COCH2

% displacement: 100%
B3: Compound 110 (peptide)
peptide: K[βAla]WQEW[2Nal][αMeL]E[Dab][3Pal]-NHMe
modifications: lactam 1-9, N-5
SMILES: CNC(=O)[C@H](Cc1cccnc1)NC(=O)[C@H](CCN)NC(=O)[C@@H]1CCC(=O)NCCCC[C@@H]2NC(=O)CC[C@H](NC(=O)[C@H](CCC(N)=O)NC(=O)[C@H](Cc3c[nH]c4ccccc34)NC(=O)CCNC2=O)C(=O)N[C@@H](Cc2c[nH]c3ccccc23)C(=O)N[C@@H](Cc2ccc3ccccc3c2)C(=O)N[C@@](C)(CC(C)C)C(=O)N1

% displacement: 97%
B4: Compound 102 (peptide)
peptide: [iso‑Lys]WQE[AEF][2Nal][αMeL]E[Dab][3Pal]-NHMe
modifications: lactam (positions not given here); not fully specified (bridges); printed as [iso-Lys](1c)^†(6c)WQE(6c)[Y(2-aminoethoxy)][2-Nal][2-Me-Leu]E(1c)[Dab][3-(3-Pyridyl)-Ala]-[NHMe], (1c) [2,11] lactam, (6c) [2,7] lactam, ^† alpha-amine in bridge

% displacement: 100%
B5: Compound 91 (peptide)
peptide: [Orn][βAla]WQE[AEF][2Nal][αMeL]E[Dab][3Pal]-NHMe
modifications: lactam 1-9, 1-5; not fully specified; printed as [Orn](1c)(6c)^†[3-Aminopropanoyl]WQE(6c)[Y(2-aminoethoxy)][2-Nal][2-Me-Leu]E(1c)[Dab][3-(3-Pyridyl)-Ala]-[NHMe], (1c) [2,11] lactam, (6c) [2,7] lactam, ^† alpha-amine in bridge; also: alpha-amine of residue 1 in bridge, which of the two lactams not given here

% displacement: 102%
B6: Compound 80 (peptide)
peptide: [NMeK][βAla]WQE[AEF][2Nal][αMeL]E[Dab][3Pal]-NHMe
modifications: lactam 1-9, 1-5; not fully specified; printed as [N-Me-Lys](1c)(6c)^†[3-Aminopropanoyl]WQE(6c)[Y(2-aminoethoxy)][2-Nal][2-Me-Leu]E(1c)[Dab][3-(3-Pyridyl)-Ala]-[NHMe], (1c) [2,11] lactam, (6c) [2,7] lactam, ^† alpha-amine in bridge; also: alpha-amine of residue 1 in bridge, which of the two lactams not given here

% displacement: 100%
B7: Compound 79 (peptide)
peptide: K[βAla][Trp(1-Me)]QE[AEF][2Nal][αMeL]E[Dab][3Pal]-NHMe
modifications: lactam 1-9, 1-5; not fully specified; printed as K(1c)(6c)^†[3-Aminopropanoyl][1-Me-Trp]QE(6c)[Y(2-aminoethoxy)][2-Nal][2-Me-Leu]E(1c)[Dab][3-(3-Pyridyl)-Ala]-[NHMe], (1c) [2,11] lactam, (6c) [2,7] lactam, ^† alpha-amine in bridge; also: alpha-amine of residue 1 in bridge, which of the two lactams not given here

% displacement: 107%
B8: Compound 10 (peptide)
peptide: [dOrn]TVWQD[AEF][2Nal][αMeL]E[Dab][3Pal]-NH2
modifications: lactam 1-10, N-6
SMILES: CC(C)C[C@]1(C)NC(=O)[C@H](Cc2ccc3ccccc3c2)NC(=O)[C@H](Cc2ccc(OCCN)cc2)NC(=O)[C@@H]2CC(=O)N[C@H](CCCNC(=O)CC[C@@H](C(=O)N[C@@H](CCN)C(=O)N[C@@H](Cc3cccnc3)C(N)=O)NC1=O)C(=O)N[C@@H]([C@@H](C)O)C(=O)N[C@@H](C(C)C)C(=O)N[C@@H](Cc1c[nH]c3ccccc13)C(=O)N[C@@H](CCC(N)=O)C(=O)N2

% displacement: 104%
B9: Compound 11 (peptide)
peptide: [dDab]TVWQD[AEF][2Nal][αMeL]E[Dab][3Pal]-NH2
modifications: lactam 1-10, N-6
SMILES: CC(C)C[C@]1(C)NC(=O)[C@H](Cc2ccc3ccccc3c2)NC(=O)[C@H](Cc2ccc(OCCN)cc2)NC(=O)[C@@H]2CC(=O)N[C@H](CCNC(=O)CC[C@@H](C(=O)N[C@@H](CCN)C(=O)N[C@@H](Cc3cccnc3)C(N)=O)NC1=O)C(=O)N[C@@H]([C@@H](C)O)C(=O)N[C@@H](C(C)C)C(=O)N[C@@H](Cc1c[nH]c3ccccc13)C(=O)N[C@@H](CCC(N)=O)C(=O)N2

% displacement: 98%
B10: Compound 41 (peptide)
peptide: [(N3)‑K]TWQ[Pra][AEF][2Nal][αMeL]E[Dab][3Pal]-NHMe
modifications: lactam 1-9; triazole (positions not given here); not fully specified (bridges); printed as [(N₃)-K](1c)(6g)^{†}TWQ[Pra](6g)[Y(2-aminoethoxy)][2-Nal][2-Me-Leu]E(1c)[Dab][3-(3-Pyridyl)-Ala]-[NHMe]

% displacement: 96%
B11: Compound 42 (peptide)
peptide: XTWQXXXXEXX
modifications: not fully specified; [{d}(N3)-K](1c)(6g)^†TWQ[Hpg](6g)[Y(2-aminoethoxy)][2-Nal][2-Me-Leu]E(1c)[Dab][3-(3-Pyridyl)-Ala]-[NHMe]; (1c) [2,11] lactam; (6g) [2,7] 1,4-disubstituted 1,2,3-triazole bridge; ^† alpha-amine converted into an azide in bridge

% displacement: 99%
B12: Compound 106 (peptide)
peptide: [iso‑Glu]WQE[AEF][2Nal][αMeL]K[Dab][3Pal]-NHMe
modifications: lactam 1-8, N-4; also: iso-Glu: alpha-carboxylic acid in bridge
